In US20100196266A1 (published 2010):

Assays:
[1] = molecular target: T1, human leukocyte antigen-DR (HLA-DR) on human lymphoma and leukemia cell lines and human lymphocytes (human); assay: indirect FACS, FITC-GAH Fc, Raji cells; none 6.8
[2] = molecular target: T1, human leukocyte antigen-DR (HLA-DR) on …; assay: indirect FACS, FITC-GAH Fc, Daudi cells; none 3.1
[3] = molecular target: T1, human leukocyte antigen-DR (HLA-DR) on …; assay: indirect FACS, FITC-GAH Fc, Ramos cells; none 3.1
[4] = molecular target: T1, human leukocyte antigen-DR (HLA-DR) on …; assay: indirect FACS, FITC-GAH Fc, Namalwa cells; none 2.5
[5] = molecular target: T1, human leukocyte antigen-DR (HLA-DR) on …; assay: indirect FACS, FITC-GAH Fc, SU-DHL-6 cells; none 4.6
[6] = molecular target: T1, human leukocyte antigen-DR (HLA-DR) on …; assay: indirect FACS, FITC-GAH Fc, WSU-FSCCL cells; none 2.6
[7] = molecular target: T1, human leukocyte antigen-DR (HLA-DR) on …; assay: indirect flow cytometry, FITC-GAH Fc, RL cells; none 2.4
[8] = molecular target: T1, human leukocyte antigen-DR (HLA-DR) on …; assay: indirect flow cytometry, FITC-GAH Fc, Raji cells; none 6.9
[9] = molecular target: T1, human leukocyte antigen-DR (HLA-DR) on …; assay: indirect flow cytometry, Namalwa cells, FITC-GAH; none 2.52
[10] = molecular target: T1, human leukocyte antigen-DR (HLA-DR) on …; assay: indirect flow cytometry, FITC-GAH Fc, Daudi cells; none 3.2
[11] = molecular target: T1, human leukocyte antigen-DR (HLA-DR) on …; assay: indirect flow cytometry, FITC-GAH Fc, Ramos cells; none 3.1
[12] = molecular target: T1, human leukocyte antigen-DR (HLA-DR) on …; assay: indirect flow cytometry, FITC-GAH Fc, Namalwa cells; none 2.6
[13] = molecular target: T1, human leukocyte antigen-DR (HLA-DR) on …; assay: indirect flow cytometry, FITC-GAH Fc, SU-DHL-6 cells; none 4.6
[14] = molecular target: T1, human leukocyte antigen-DR (HLA-DR) on …; assay: indirect flow cytometry, FITC-GAH Fc, WSU-FSCCL cells; none 2.7

Geometric Mean Fluorescence [1]: 972
Geometric Mean Fluorescence [2]: 937
Geometric Mean Fluorescence [3]: 278
Geometric Mean Fluorescence [4]: 261
Geometric Mean Fluorescence [5]: 572
Geometric Mean Fluorescence [6]: 467
Geometric Mean Fluorescence [7]: 112
Geometric Mean Fluorescence [8]: 972
GEO MEAN Fluorescence [9]: 324
Geometric Mean Fluorescence [10]: 937
Geometric Mean Fluorescence [11]: 278
Geometric Mean Fluorescence [12]: 261
Geometric Mean Fluorescence [13]: 572
Geometric Mean Fluorescence [14]: 467
B1: hL243γ4P (humanized L243, IgG4/K isotype with hinge mutation Ser241Pro) (antibody, V domains shown)
VH: QVQLQQSGSELKKPGASVKVSCKASGFTFTNYGMNWVKQAPGQGLKWMGWINTYTREPTYADDFKGRFAFSLDTSVSTAYLQISSLKADDTAVYFCARDITAVVPTGFDYWGQGSLVTVSS
VL: DIQLTQSPSSLSASVGDRVTITCRASENIYSNLAWYRQKPGKAPKLLVFAASNLADGVPSRFSGSGSGTDYTFTISSLQPEDIATYYCQHFWTTPWAFGGGTKLQIKR
notes: Same V domains as hL243; human γ4 constant region with Ser241Pro (Kabat numbering) in the hinge, human kappa; also called hL243 (IgG4 isotype)
